Data reported in PMC3738495, “Structure of the Parainfluenza Virus 5 (PIV5) Hemagglutinin-Neuraminidase (HN) Ectodomain” (PLoS Pathogens, 2013).

Target: the molecule itself
Assay: crystal structure; PIV5 HN ectodomain 56-565 at ~10 mg/mL with a 1.2 molar excess of sialyllactose; 1.6 M ammonium sulfate, 0.1 M MES pH 6.5, 10% 1,4-dioxane, room temperature; space group I4, 2.5 Å

B1: PIV5 HN ectodomain (56-565) (domain or fragment)
chain: SGLGSITDLLNNILSVANQIIYNSAVALPLQLDTLESTLLTAIKSLQTSDKLEQNCSWSAALINDNRYINGINQFYFSIAEGRNLTLGPLLNMPSFIPTATTPEGCTRIPSFSLTKTHWCYTHNVILNGCQDHVSSNQFVSMGIIEPTSAGFPFFRTLKTLYLSDGVNRKSCSISTVPGGCMMYCFVSTQPERDDYFSAAPPEQRIIIMYYNDTIVERIINPPGVLDVWATLNPGTGSGVYYLGWVLFPIYGGVIKGTSLWNNQANKYFIPQMVAALCSQNQATQVQNAKSSYYSSWFGNRMIQSGILACPLRQDLTNECLVLPFSNDQVLMGAEGRLYMYGDSVYYYQRSNSWWPMTMLYKVTITFTNGQPSAISAQNVPTQQVPRPGTGDCSATNRCPGFCLTGVYADAWLLTNPSSTSTFGSEATFTGSYLNTATQRINPTMYIANNTQIISSQQFGSSGQEAAYGHTTCFRDTGSVMVYCIYIIELSSSLLGQFQIVPFIRQVTLS
notes: Hemagglutinin-neuraminidase (HN) of parainfluenza virus 5, ectodomain residues 56-565 (stalk 56-101, linker 102-117, head from I118); also called parainfluenza virus 5 hemagglutinin-neuraminidase ectodomain
stoichiometry N: 4
